Experiment [1] has as its target PII-LgBiT (wild-type PII protein from Synechocystis sp. PCC6803 fused to Large BiT) (Synechocystis sp. PCC6803) (UniProt Q55247). Description: split reporter (BiFC, NanoBiT); competition; 10 pM PII-LgBiT trimer with PipX (180, 900, 1800 nM monomer) 15 min at 30 °C, then 180 nM NAGK-SmBiT monomer for 30 min; 2 mM ATP.
Experiment [2] has as its target NAGK (Synechococcus elongatus) (UniProt Q6V1L5). The experiment is described as follows: ultrafiltration. The note with it: cited from earlier work.
The target in experiment [3] is PII-LgBiT (wild-type PII protein from Synechocystis sp. PCC6803 fused to Large BiT) (Synechocystis sp. PCC6803) (UniProt Q55247). Description: split reporter (BiFC, NanoBiT); time course; 10 pM PII-LgBiT and 10 nM PipX-SmBiT; complex formed with 2 mM ATP, then 2 mM 2-OG added.
Chain of PII-LgBiT (wild-type PII protein from Synechocystis sp. PCC6803 fused to Large BiT) (Synechocystis sp. PCC6803) (Q55247 whole entry, the tested form may be a part): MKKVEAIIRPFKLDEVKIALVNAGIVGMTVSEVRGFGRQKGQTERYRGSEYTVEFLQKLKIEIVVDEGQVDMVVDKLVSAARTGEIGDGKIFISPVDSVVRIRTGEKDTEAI
For experiment [4] the target is unchanged. Description: split reporter (BiFC, NanoBiT); time course; 10 pM PII-LgBiT and 10 nM PipX-SmBiT; ATP/ADP mixtures at a total ADP + ATP concentration of 2 mM.
Experiment [5] has the same target. The experiment is described as follows: split reporter (BiFC, NanoBiT); in solution; PipX-SmBiT (0-800 nM) titrated to 10 pM PII-LgBiT trimer; 2 mM ATP; 50 mM Tris/HCl pH 7.6, 100 mM KCl, 10% glycerol, 2 mM MgCl2, 0.1% BSA; 15 min at 30 °C; KD from half-maximal luminescence.
For experiment [6] the target is unchanged. Description: split reporter (BiFC, NanoBiT); in solution; PipX-SmBiT (0-800 nM) titrated to 10 pM PII-LgBiT trimer; 2 mM ADP; 50 mM Tris/HCl pH 7.6, 100 mM KCl, 10% glycerol, 2 mM MgCl2, 0.1% BSA; 15 min at 30 °C; KD from half-maximal luminescence.
Experiment [7] has the same target. The experiment is described as follows: split reporter (BiFC, NanoBiT); time course; 10 pM PII-LgBiT and 10 nM PipX-SmBiT; complex formed with 1 mM ATP + 1 mM ADP, then 2 mM 2-OG added.

Chain of NAGK (Synechococcus elongatus) (Q6V1L5 whole entry, the tested form may be a part): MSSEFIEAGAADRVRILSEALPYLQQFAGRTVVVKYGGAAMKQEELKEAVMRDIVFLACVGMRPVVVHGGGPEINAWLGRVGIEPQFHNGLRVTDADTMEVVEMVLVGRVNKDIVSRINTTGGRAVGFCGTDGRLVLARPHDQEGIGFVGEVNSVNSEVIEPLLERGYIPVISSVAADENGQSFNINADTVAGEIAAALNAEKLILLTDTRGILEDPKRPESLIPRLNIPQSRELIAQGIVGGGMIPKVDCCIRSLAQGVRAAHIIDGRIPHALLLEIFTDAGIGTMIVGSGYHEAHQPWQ
Chain of PII (P0A3F4 whole entry): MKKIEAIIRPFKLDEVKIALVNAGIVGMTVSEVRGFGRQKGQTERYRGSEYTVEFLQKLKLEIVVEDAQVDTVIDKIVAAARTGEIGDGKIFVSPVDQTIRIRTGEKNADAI

In experiment [1], “PipX (without SmBiT, competitor) (natural protein)” returned a luminescence signal of PII-LgBiT with NAGK-SmBiT left at PipX 1:1 to NAGK (2 mM ATP) of 50%.
With PII (from UniProt P0A3F4), the Kd in experiment [2] is 0.073 µM.
As to “PipX-SmBiT (PII-interacting protein X fused to Small BiT) (natural protein)”, the time until half of the complex was dissociated after adding 2 mM 2-OG (2 mM ATP) in experiment [3] was determined as 45 s. Moreover, in experiment [4], the luminescence signal with 0.5 mM ADP + 1.5 mM ATP (percent) was determined as 80%. Moreover, the results for the Kd in experiment [5] and in experiment [6] were 0.052 µM and 0.0057 µM, respectively. For the same substance, the time until half of the complexes was dissociated after adding 2 mM 2-OG (1 mM ATP + 1 mM ADP) in experiment [7] is 340 s.

Broadly, the Kd is the free concentration of one partner at which half of the binding sites on the other are occupied at equilibrium, for simple one-to-one binding.

The values are drawn from paper PMC8206089, “Split NanoLuc technology allows quantitation of interactions between PII protein and its receptors with unprecedented sensitivity and reveals transient interactions” (Scientific Reports, 2021).
